Laboratory results taken from patent US6951917.

Target: HLA-DR on 1088-EBV cells (autologous EBV-B cells of patient 1088) (human)
Assay: cell-based or functional assay

inhibition of GM-CSF secretion by CD4+ TIL 1088 stimulated with 1088-EBV pulsed with autologous melanoma lysate (mAb 23 ug/ml): 96%
B1: monoclonal antibody L243 (anti-HLA-DR; IgG2a) (antibody, from another filing, V domains shown)
VH: QIQLVQSGPELKKPGETVKISCKASGFTFTNYGMNWVKQAPGKGLKWMGWINTYTREPTYADDFKGRFAFSLETSASTAYLQINNLKNEDTAKYFCARDITAVVPTGFDYWGQGTTLTVSS
VL: DIQMTQSPASLSVSVGETVTITCRASENIYSNLAWYRQKQGKSPQLLVFAASNLADGVPSRFSGSGSGTQYSLKINSLQSEDFGDYYCQHFWTTPWAFGGGTNLEIKR
